Assay results from US11767344B2, “Pharmaceutically acceptable salts of polypeptides and methods of inhibiting the interaction between psd-95 and n-methyl-d-aspartic acid receptor (nmdar)” (BIOCELLS (BEIJING) BIOTECH CO., LTD., priority 2017, dated 2023).
Ends that are not written are not given here.

Tests used:
[1] = Stability analysis of P5 salt powders (HPLC area normalization); conditions: powder, 10 days
Protocol: The three P5 salts in Example 3 in their powder form were subjected to treatments with irradiation (3000 Lx)+ultraviolet (UV), high temperature (60° C.), and high humidity (75% RH) for 10 days. After the treatments, the powders were dissolved in water to prepare a solution at a concentration of 2 mg/ml. 10 μl of each solution was accurately measured and injected into a liquid chromatograph, and the chromatograms were recorded. Relevant substances were calculated according to the area normalization method to analyze the content and the number of impurity species.
(§1) Mobile phase: A 0.065% TFA-water; B 0.05% TFA-ACN
(§2) Detection wavelength λ=220 nm; flow rate V=1.0 ml/min; temperature T=36° C.
Injection volume Inj=10 ul
(§3) Gradient conditions: 0-30 min, B %=5-65%

[2] = Stability analysis of P5 salt solutions (HPLC area normalization); conditions: aqueous solution 2 mg/ml, irradiation (3000 Lx), 10 days
Protocol: The solutions were subjected to treatments with irradiation (3000 Lx) and high temperature (60° C.) for 10 days. After the treatments, 10 μl of each solution was accurately measured and injected into a liquid chromatograph, and the chromatograms were recorded. The relevant substances were calculated according to the area normalization method to analyze the content and the number of impurity species.
high performance liquid chromatograph (Agilent, 1260 EZChrom); chromatographic column (Agilent, ZORBAX 300SB-C18 (4.6*250 mm, 5 μm) SN: USHH008416); analytical balance (Sartoris, BT25S); filter membrane (Millipore, 0.45 μm PTFE); acetonitrile (MREDA); water (Aqua); TFA (MREDA); and comprehensive drug stability test box (three-box type) (Shanghai Zuocheng Experimental Instrument Co. Ltd, item no. SHH-3SDT).
as §1, §2
Injection volume Inj=10 μl
as §3

rat MCAO model = assay: Therapeutic effect on rat MCAO model (cerebral infarction volume, TTC staining); format: in vivo
[3] = irradiation (3000 Lx) + ultraviolet

P5-TFA: trifluoroacetate salt of chimeric peptide P5 (YGRKKRRQRRRYEKLLDTEI) (also: trifluoroacetate salt)
Number of impurity species ([1]; high humidity (75% RH)): 1
Percentage of main peak area ([1]; high humidity (75% RH)): 99.73%
Number of impurity species ([1]; high temperature (60° C.)): 3
Percentage of main peak area ([1]; high temperature (60° C.)): 99.56%
Number of impurity species [1, 3]: 6
Percentage of main peak area [1, 3]: 98.34%
Number of impurity species [2]: 10
Percentage of main peak area [2]: 97.28%
cerebral infarction volume as compared with the model group (rat MCAO model; 10 mg/kg tail vein injection 1 hour after ischemia, 24 h after administration, p<0.01): significantly reduced
effect in reducing cerebral infarction volume as compared with positive control drug NBP (rat MCAO model; 10 mg/kg vs NBP 2.5 mg/kg, tail vein injection 1 hour after ischemia, p<0.05): significantly superior
